Patent publication US11814435B2, “Therapeutic antibodies and their uses” (PFIZER INC., priority 2015, dated 2023)
Residue numbers refer to the chain shown, from its start. Blank lines part the entries; values can stand above or below the molecule they belong to.

Assays:
[1] = molecular target: CD3 (Homo sapiens, UniProt P07766); assay: Biacore kinetics of anti-CD3 hIgG2dA bispecifics at 37° C.; type: binding
[2] = molecular target: T1, hBCMA (human BCMA) (Homo sapiens, UniProt Q02223); assay: Kinetics and affinity of hBCMA/human IgG interactions by SPR (Bio-Rad Proteon XPR36); type: binding; conditions: human BCMA, 37° C.
T1 sequence (Q02223 1-184): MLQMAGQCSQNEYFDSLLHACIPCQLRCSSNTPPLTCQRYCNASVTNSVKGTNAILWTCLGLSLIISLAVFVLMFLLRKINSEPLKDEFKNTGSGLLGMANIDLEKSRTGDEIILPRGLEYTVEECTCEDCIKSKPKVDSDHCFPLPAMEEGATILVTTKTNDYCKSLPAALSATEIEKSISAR
Procedure, shortened: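 Captured here: binding of soluble BCMA to covalently coupled anti-BCMA IgGs, measured at 37° C. or 25° C. with a five-point single-cycle series (top 50 nM, fivefold dilution) and extended 2 h off-rate phase, analyzed by a 1:1 mass-transport-corrected model.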

[3] = tested on: Cyno BCMA; assay: Kinetics and affinity of cyno BCMA/human IgG interactions by SPR (Bio-Rad Proteon XPR36); type: binding, cynomolgus; conditions: 37° C.
[4] = molecular target: hCD3 (human CD3) (Homo sapiens, UniProt P07766); assay: Kinetics and affinity of hCD3/human IgG interactions by SPR (Bio-Rad Proteon XPR36); type: binding; conditions: 37° C.
Description: All experiments were performed on a Bio-Rad Proteon XPR36 surface Plasmon resonance biosensor (Bio-Rad, Hercules, Calif.). An array of anti-CD3 antibodies was prepared using an amine-coupling method on a Bio-Rad GLC Sensor Chip similar to that described in Abdiche, et al., Anal. Biochem. 411, 139-151 (2011). The analysis temperature for the immobilization was 25° C. and the running buffer was HBS-T+(10 mM HEPES, 150 mM NaCl, 0.05% Tween-20, pH 7.4). Channels were activated in the analyte (horizontal) direction by injecting a mixture of 1 mM ECD and 0.25 mM NHS for 3 minutes at a flow rate of 30 μL/min. IgGs were immobilized on the activated spots by injecting them in the ligand (vertical) direction at 20 μg/mL in 10 mM Acetate pH 4.5 buffer for 1.5 minutes at […]. The activated surfaces were blocked by injecting 1M ethanolamine, pH 8.5 in the analyte direction for 3 minutes at 30 μL/min.
The analysis temperature for the hCD3 binding analysis was 37° C. or 25° C. in a running buffer of HBS-T+, supplemented with 1 mg/mL BSA. A kinetic titration method was employed for the interaction analysis as described in Abdiche, et al. The hCD3 (human CD3) analyte was injected in the analyte direction using a series of injections from low to high concentration. The concentrations used were 0.08 nM, 0.4 nM, 2 nM, 10 nM and 50 nM (a 5-membered series, with a 5-fold dilution factor and top concentration of 50 nM). The association time for a given analyte dilution was two minutes. Immediately after the 50 nM hCD3 injection, dissociation was monitored for 2 hours. Prior to the hCD3 analyte injections, buffer was injected 5 times using the same association and dissociation times at the hCD3 analyte cycles to prepare a buffer blank sensorgram for double-referencing purposes (double referencing as described in Myszka, J. Mol. Recognit. 12, 279-284 (1999).
The sensorgrams were double-referenced and fit to a 1:1 Langmuir with mass transport kinetic titration model in BIAevaluation Software version 4.1.1 (GE Lifesciences, Piscataway, N.J.).

Sequence of CD3 (P07766 23-126 limits assumed): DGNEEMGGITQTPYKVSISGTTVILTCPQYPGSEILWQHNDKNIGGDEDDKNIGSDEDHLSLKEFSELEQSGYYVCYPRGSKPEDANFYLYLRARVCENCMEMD
Sequence of CD3 (P04234 22-105 partner limits assumed): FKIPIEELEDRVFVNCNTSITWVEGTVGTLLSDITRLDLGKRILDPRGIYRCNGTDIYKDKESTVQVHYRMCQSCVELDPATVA
Sequence of hCD3 (human CD3) (P07766 23-126 limits assumed): as the sequence (P07766 23-126 limits assumed) above
Sequence of hCD3 (human CD3) (P04234 22-105 partner limits assumed): as the sequence (P04234 22-105 partner limits assumed) above

Kd [1]: 25.1 nM
ka [1]: 1.2e+06 M⁻¹ s⁻¹
kd [1]: 0.0301 s⁻¹
B1: h25A8-C8_Ep (antibody, V domains shown)
VH: EVQLVESGGGLVKPGGSLRLSCAASGFTFNTYAMNWVRQAPGKGLEWVGRIRSKINNYATYYAESVKGRFTISRDDSKNTLYLQMNSLKTEDTAVYYCVRHETLRSGISWFASWGQGTLVTVSS
VL: QAVVTQEPSLTVSPGGTVTLTCRSSTGAVTTSNYANWVQQKPGQAPRGLIGGTNTRAPGTPARFSGSLLGGKAALTLSGAQPEDEAEYYCVLWYNNHWVFGGGTKLTVL
modifications: left off: another chain or arm of the molecule; a dimerising Fc or GST; small tags and cut ends

Kd [1]: 45 nM
ka [1]: 1.29e+06 M⁻¹ s⁻¹
kd [1]: 0.0581 s⁻¹
B2: h25A8-B5_Ep (antibody, V domains shown)
VH: B1 VH with N30S
VL: B1 VL with H97Y
modifications: left off: another chain or arm of the molecule; a dimerising Fc or GST; small tags and cut ends

Kd [1]: 18.3 nM
ka [1]: 1.2e+06 M⁻¹ s⁻¹
kd [1]: 0.0219 s⁻¹
B3: h25A8-B13_Ep: anti-EpCam/CD3 bispecific, human IgG2dA, anti-CD3 arm h25A8-B13 (antibody, V domains shown)
VH: B1 VH with N30S
VL: B1 VL with S24T
modifications: left off: another chain or arm of the molecule; a dimerising Fc or GST; small tags and cut ends
notes: anti-EpCam/CD3 bispecific, human IgG2dA, anti-CD3 arm h25A8-B13

Kd [1]: 21 nM
ka [1]: 1.15e+06 M⁻¹ s⁻¹
kd [1]: 0.0241 s⁻¹
B4: h25A8-B12_Ep: anti-EpCam/CD3 bispecific, human IgG2dA, anti-CD3 arm h25A8-B12 (antibody, V domains shown)
VH: B1 VH with N30S
VL: B1 VL with S24A
modifications: left off: another chain or arm of the molecule; a dimerising Fc or GST; small tags and cut ends
notes: anti-EpCam/CD3 bispecific, human IgG2dA, anti-CD3 arm h25A8-B12

Kd [1]: 18.7 nM
ka [1]: 1.19e+06 M⁻¹ s⁻¹
kd [1]: 0.0222 s⁻¹
B5: h25A8-B8_Ep (antibody, V domains shown)
VH: B1 VH with N30S
VL: B1 VL
modifications: left off: another chain or arm of the molecule; a dimerising Fc or GST; small tags and cut ends

ka Human [2]: 3.03e+06 M⁻¹ s⁻¹
kd Human [2]: 0.000775 s⁻¹
kd Cyno [3]: 0.00165 s⁻¹
B6: COMBO_Rd4_6 nM_C22: anti-BCMA antibody (antibody, V domains shown)
VH: EVQLLESGGGLVQPGGSLRLSCAASGFTFSSYAMNWVRQAPGKGLEWVSACLDSGGSTYYADSVKGRFTISRDNSKNTLYLQMNSLRAEDTAVYYCARYWPMDSWGQGTLVTVSS
VL: EIVLTQSPGTLSLSPGERATLSCRASQSVSSSYLAWYQQKPGQAPRLLMYDASIRATGIPDRFSGSGSGTDFTLTISRLEPEDFAVYYCQQYQGWPLTFGQGTKVEIK
ka Cyno [3]: 1.7e+06 M⁻¹ s⁻¹

Kd [2]: 0.021 nM
ka Human [2]: 3.49e+06 M⁻¹ s⁻¹
kd Human [2]: 7.37e-05 s⁻¹
Kd [3]: 0.058 nM
kd Cyno [3]: 0.000105 s⁻¹
B7: A02_Rd4_0.6 nM_C06: anti-BCMA antibody (antibody, V domains shown)
VH: B6 VH with C51I, L52S, T58A, Y59W, D103S, S104L
VL: B6 VL with S31V, S32L, G94R
ka Cyno [3]: 1.81e+06 M⁻¹ s⁻¹

ka Human [2]: 1.69e+06 M⁻¹ s⁻¹
kd Human [2]: 0.000126 s⁻¹
kd Cyno [3]: 0.000185 s⁻¹
B8: A02_Rd4_6 nM_C03: anti-BCMA antibody (antibody, V domains shown)
VH: B6 VH with C51I, L52S, S104I
VL: B6 VL with S31N, S32L
ka Cyno [3]: 1.17e+06 M⁻¹ s⁻¹

ka Human [2]: 5.11e+06 M⁻¹ s⁻¹
kd Human [2]: 0.00106 s⁻¹
kd Cyno [3]: 0.00423 s⁻¹
B9: COMBO_Rd4_0.6 nM_C11: anti-BCMA antibody (antibody, V domains shown)
VH: B6 VH with A33P, N35S, C51A, D53G, D103S, S104L
VL: B6 VL with S31V, S32R, Q93G, G94S, L97I
ka Cyno [3]: 2.2e+06 M⁻¹ s⁻¹

ka Human [2]: 5.5e+06 M⁻¹ s⁻¹
kd Human [2]: 9.75e-05 s⁻¹
kd Cyno [3]: 0.000174 s⁻¹
B10: A02_Rd4_0.6 nM_C09: anti-BCMA antibody (antibody, V domains shown)
VH: B6 VH with C51I, L52S, T58M, Y59W, D103S, S104L
VL: B6 VL with G94S
ka Cyno [3]: 2.13e+06 M⁻¹ s⁻¹

ka huCD3ed @37° C. [4]: 380000 M⁻¹ s⁻¹
kd huCD3ed @37° C. [4]: 0.014 s⁻¹
B11: h2B4-VH-wt VL_TK: anti-CD3 antibody (antibody, V domains shown)
VH: EVQLVESGGGLVQPGGSLRLSCAASGFTFSDYYMTWVRQAPGKGLEWVAFIRNRARGYTSDHNASVKGRFTISRDNAKNSLYLQMNSLRAEDTAVYYCARDRPSYYVLDYWGQGTTVTVSS
VL: DIVMTQSPDSLAVSLGERATINCKSSQSLFNVRSRKNYLAWYQQKPGQPPKLLISWASTRESGVPDRFSGSGSGTDFTLTISSLQAEDVAVYYCKQSYDLFTFGSGTKLEIK

Kd [1]: 54.4 nM
ka [1]: 474000 M⁻¹ s⁻¹
kd [1]: 0.0258 s⁻¹
B12: h2B4-yaesTK_Ep: anti-EpCam/CD3 bispecific, human IgG2dA, anti-CD3 arm h2B4-yaesTK (h2B4-VH-yaes VL_TK) (antibody, V domains shown)
VH: B11 VH with H62Y, N63A, A64E
VL: B11 VL
modifications: left off: another chain or arm of the molecule; a dimerising Fc or GST; small tags and cut ends

Kd [1]: 40.4 nM
ka [1]: 586000 M⁻¹ s⁻¹
kd [1]: 0.0237 s⁻¹
B13: h2B4-1d_Ep: anti-EpCam/CD3 bispecific, human IgG2dA, anti-CD3 arm h2B4-1d (h2B4) (antibody, V domains shown)
VH: B11 VH
VL: B11 VL with K24T
modifications: left off: another chain or arm of the molecule; a dimerising Fc or GST; small tags and cut ends

Kd [1]: 31.2 nM
ka [1]: 754000 M⁻¹ s⁻¹
kd [1]: 0.0235 s⁻¹
B14: h2B4-hnpsTK_Ep: anti-EpCam/CD3 bispecific, human IgG2dA, anti-CD3 arm h2B4-hnpsTK (h2B4-VH-hnps VL_TK) (antibody, V domains shown)
VH: B11 VH with A64P
VL: B11 VL
modifications: left off: another chain or arm of the molecule; a dimerising Fc or GST; small tags and cut ends

Kd [1]: 31 nM
ka [1]: 687000 M⁻¹ s⁻¹
kd [1]: 0.0213 s⁻¹
B15: h2B4-TK_Ep: anti-EpCam/CD3 bispecific, human IgG2dA, anti-CD3 arm h2B4-TK (h2B4-VH-wt VL_TK) (antibody, V domains shown)
VH: B11 VH
VL: B11 VL
modifications: left off: another chain or arm of the molecule; a dimerising Fc or GST; small tags and cut ends
